The nature of this data set: total protein half-life in vivo (active degradation + dilution); higher = more stable protein.
[1] abbreviates: E. coli NCM3722 delta-clpP delta-lon delta-hslV, growth: N-lim chemostat, doubling time 6 h.
Setting [2] is: E. coli NCM3722 delta-clpP, growth: N-lim chemostat, doubling time 6 h.
The mark [3] stands for this setting: E. coli NCM3722 delta-hslV, growth: N-lim chemostat, doubling time 6 h.
Setting [4] is: E. coli NCM3722 delta-lon, growth: N-lim chemostat, doubling time 6 h.
The mark [5] stands for this setting: E. coli NCM3722 delta-smpB, growth: N-lim chemostat, doubling time 6 h.
Setting [6] is: wild type E. coli NCM3722, growth: C-lim chemostat, doubling time 6 h.
[7] abbreviates: wild type E. coli NCM3722, growth: C-lim chemostat, doubling time 12 h.
Where [8] appears, read: wild type E. coli NCM3722, growth: N-lim chemostat, doubling time 6 h.
The mark [9] stands for this setting: wild type E. coli NCM3722, growth: N-lim chemostat, doubling time 12 h.
Setting [10] is: wild type E. coli NCM3722, growth: P-lim chemostat, doubling time 6 h.
The mark [11] stands for this setting: wild type E. coli NCM3722, growth: P-lim chemostat, doubling time 12 h.
The mark [12] stands for this setting: wild type E. coli NCM3722, growth: C-lim chemostat, doubling time 3 h.

± gives the standard deviation of the averaged measurements.

Turning to “MKTGPLNESELEWLDDILTKYNTDHAILDVAELDGLLTAVLSSPQEIEPEQWLVAVWGGADYVPRWASEKEMTRFMNLAFQHMADTAERLNEFPEQFEPLFGLREVDGSELTIVEEWCFGYMRGVALSDWSTLPDSLKPALEAIALHGTEENFERVEKMSPEAFEESVDAIRLAALDLHAYWMAHPQEKAVQQPIKAEEKPGRNDPCPCGSGKKFKQCCLH [P0AD05]”, the “total protein half-life in vivo” value turned out to be 5.402 ± 0.046 h under setting [1]; 5.13 ± 1.1 h under setting [2]; 4.22 ± 0.47 h under setting [3]; 4.39 ± 0.54 h under setting [4]; 3.3 ± 0.53 h under setting [5]; 5.21 ± 1.5 h under setting [6]. In addition, the “total protein half-life in vivo” value reads like this: under setting [7], 8.89 ± 1.9 h; under setting [8], 3.93 ± 0.25 h; under setting [9], 5.34 ± 1.1 h; under setting [10], 4.67 ± 0.34 h; under setting [11], 8.41 ± 0.26 h.

Turning to “MMSFQKIYSPTQLANAMKLVRQQNGWTQSELAKKIGIKQATISNFENNPDNTTLTTFFKILQSLELSMTLCDAKNASPESTEQQNLEW”, the “total protein half-life in vivo” value came to 11.7 h under setting [7], 4.64 h under setting [8] and 12 ± 0.84 h under setting [11].

In the case of “MSSSRPVFRSRWLPYLLVAPQLIITVIFFIWPAGEALWYSLQSVDPFGFSSQFVGLDNFVTLFHDSYYLDSFWTTIKFSTFVTVSGLLVSLFFAALVEYIVRGSRFYQTLMLLPYAVAPAVAAVLWIFLFNPGRGLITHFLAEFGYDWNHAQNSGQAMFLVVFASVWKQISYNFLFFYAALQSIPRSLIEAAAIDGAGPIRRFFKIALPLIAPVSFFLLVVNLVYAFFDTFPVIDAATSGGPVQATTTLIYKIYREGFTGLDLASSAAQSVVLMFLVIVLTVVQFRYVESKVRYQ”, the “total protein half-life in vivo” value runs as follows: under setting [10], 5.34 h; under setting [11], 11.9 ± 0.84 h.

“MAITGIFFGSDTGNTENIAKMIQKQLGKDVADVHDIAKSSKEDLEAYDILLLGIPTWYYGEAQCDWDDFFPTLEEIDFNGKLVALFGCGDQEDYAEYFCDALGTIRDIIEPRGATIVGHWPTAGYHFEASKGLADDDHFVGLAIDEDRQPELTAERVEKWVKQISEELHLDEILNA”: the “total protein half-life in vivo” value reads like this: under setting [1], 5.32 ± 1.2 h; under setting [2], 5.07 ± 0.65 h; under setting [3], 4.45 ± 0.27 h; under setting [4], 4.59 ± 0.44 h; under setting [5], 4.64 ± 0.75 h; under setting [6], 5.31 ± 0.73 h. Also, the “total protein half-life in vivo” value under setting [7] came to 7.02 ± 3 h, the “total protein half-life in vivo” value under setting [8] came out at 4.71 ± 0.14 h, the “total protein half-life in vivo” value under setting [9] is 8.16 ± 0.92 h and the “total protein half-life in vivo” value under setting [10] came to 6.33 ± 0.46 h.

With “MESYSQNSNKLDFQHEARILNGIWLITALGLVATAGLAWGAKYIEITATKYDSPPMYVAIGLLLLCMYGLSKDINKINAAIAGVIYLFLLSLVAIVVASLVPVYAIIIVFSTAGAMFLISMLAGLLFNVDPGSHRFIIMMTLTGLALVIIVNAALMSERPIWIISCLMIVLWSGIISHGRNKLLELAGKCHSEELWSPVRCAFTGALTLYYYFIGFFGILAAIAITLVWQRHTRFFH”, the “total protein half-life in vivo” value under setting [8] was above 8 h.

In the case of “MTNNDTTLQLSSVLNRECTRSRVHCQSKKRALEIISELAAKQLSLPPQVVFEAILTREKMGSTGIGNGIAIPHGKLEEDTLRAVGVFVQLETPIAFDAIDNQPVDLLFALLVPADQTKTHLHTLSLVAKRLADKTICRRLRAAQSDEELYQIITDTEGTPDEA”, the “total protein half-life in vivo” value is, setting by setting: under setting [1], 4.58 ± 0.29 h; under setting [2], 3.48 ± 2.9 h; under setting [3], 5.17 ± 0.097 h; under setting [4], 5.82 h; under setting [5], 3.01 ± 0.57 h; under setting [12], 2.46 ± 0.65 h. For the same sequence, the “total protein half-life in vivo” value reads like this: under setting [6], 5.18 ± 1.6 h; under setting [7], 9.11 ± 5.2 h; under setting [8], 3.79 h; under setting [9], 5.69 ± 0.31 h; under setting [10], 3.46 ± 1.9 h; under setting [11], 8.38 ± 1.6 h.

Turning to “MKKLVLAALLASFTFGASAAEKINFGVSATYPPFESIGANNEIVGFDIDLAKALCKQMQAECTFTNHAFDSLIPSLKFRKYDAVISGMDITPERSKQVSFTTPYYENSAVVIAKKDTYKTFADLKGKRIGMENGTTHQKYIQDQHPEVKTVSYDSYQNAFIDLKNGRIDGVFGDTAVVNEWLKTNPQLGVATEKVTDPQYFGTGLGIAVRPDNKALLEKLNNALAAIKADGTYQKISDQWFPQ”, the “total protein half-life in vivo” value reads like this: under setting [1], 4.29 ± 0.69 h; under setting [2], 5.1 ± 0.92 h; under setting [3], 5.91 ± 0.093 h; under setting [4], 6.25 ± 0.23 h; under setting [5], 5.73 ± 0.62 h; under setting [12], 2.99 ± 0.12 h. For the same sequence, the “total protein half-life in vivo” value is 6.13 ± 0.83 h under setting [6]; 9.32 ± 1.2 h under setting [7]; 5.47 ± 0.24 h under setting [8]; 11.9 ± 0.32 h under setting [9]; 5.3886 ± 0.0029 h under setting [10]; 11 ± 1.2 h under setting [11].

Turning to “MKKSLLGLTFASLMFSAGSAVAADYKIDKEGQHAFVNFRIQHLGYSWLYGTFKDFDGTFTFDEKNPAADKVNVTINTTSVDTNHAERDKHLRSADFLNTAKYPQATFTSTSVKKDGDELDITGDLTLNGVTKPVTLEAKLIGQGDDPWGGKRAGFEAEGKIKLKDFNIKTDLGPASQEVDLIISVEGVQQK [P0A8X2]”, the “total protein half-life in vivo” value by setting is: under setting [1], 5.61 ± 0.24 h; under setting [2], 6.32 ± 0.21 h; under setting [3], 6.38 ± 0.11 h; under setting [4], 6.59 ± 0.48 h; under setting [5], 6.61 ± 1.1 h; under setting [12], 3.22 ± 0.24 h. Besides, the “total protein half-life in vivo” value runs as follows: under setting [7], 10.6 ± 4 h; under setting [8], 6.19 ± 0.62 h; under setting [9], 10.9 ± 2.2 h; under setting [10], 6.05 ± 0.28 h; under setting [11], 14 ± 1.4 h.

With “MSYSNILVAVAVTPESQQLLAKAVSIARPVKGHISLITLASDPEMYNQLAAPMLEDLRSVMHEETQSFLDKLIQDAGYPVDKTFIAYGELSEHILEVCHKHHFDLVICGNHNHSFFSRASCSAKRVIASSEVDVLLVPLTGD”, the “total protein half-life in vivo” value by setting is: under setting [1], 4.56 ± 0.81 h; under setting [2], 3.97 h; under setting [3], 4.06 h; under setting [4], 4.66 ± 0.43 h; under setting [5], 3.93 ± 0.25 h; under setting [12], 3.26 ± 0.33 h. Moreover, the “total protein half-life in vivo” value runs as follows: under setting [6], 3.71 h; under setting [7], 9.83 ± 3.1 h; under setting [8], 4.07 h; under setting [9], 6.65 h; under setting [10], 5.2 h; under setting [11], 11.8 ± 1.2 h.

With “MKRLSITVRLTLLFILLLSVAGAGIVWTLYNGLASELKWRDDTTLINRTAQIKQLLIDGVNPDTLPVYFNRMMDVSQDILIIHGDSINKIVNRTNVSDGMLNNIPASETISAAGIYRSIINDTEIDALRINIDEVSPSLTVTVAKLASARHNMLEQYKINSIIICIVAIVLCSVLSPLLIRTGLREIKKLSGVTEALNYNDSREPVEVSALPRELKPLGQALNKMHHALVKDFERLSQFADDLAHELRTPINALLGQNQVTLSQTRSIAEYQKTIAGNIEELENISRLTENILFLARADKNNVLVKLDSLSLNKEVENLLDYLEYLSDEKEICFKVECNQQIFADKILLQRMLSNLIVNAIRYSPEKSRIHITSFLDTNSYLNIDIASPGTKINEPEKLFRRFWRGDNSRHSVGQGLGLSLVKAIAELHGGSATYHYLNKHNVFRITLPQRN”, the “total protein half-life in vivo” value reads like this: under setting [1], 5.59 ± 0.15 h; under setting [2], 6.99 ± 0.076 h; under setting [3], 6.03 ± 0.26 h; under setting [5], 5.75 ± 0.48 h; under setting [12], 3.13 ± 0.66 h; under setting [6], 7.13 ± 0.64 h. The “total protein half-life in vivo” value under setting [7] was 10.1 h; the “total protein half-life in vivo” value under setting [8] was found to be 6.174 ± 0.057 h; the “total protein half-life in vivo” value under setting [9] is 12.98 ± 0.022 h; the “total protein half-life in vivo” value under setting [10] is 5.63 ± 0.89 h; the “total protein half-life in vivo” value under setting [11] amounted to 13.4 ± 0.56 h.

Values taken from the supplement of paper PMC11246515.
